Measurements taken from patent US20090291081A1 (AbbVie / Abbott, published 2009).
Numbering of substitutions follows the chain as printed.

T1: human IL-1α (human, UniProt P01583 113-271)
T1 construct: also called IL-1alpha; hIL-1α
T1 sequence (looked up): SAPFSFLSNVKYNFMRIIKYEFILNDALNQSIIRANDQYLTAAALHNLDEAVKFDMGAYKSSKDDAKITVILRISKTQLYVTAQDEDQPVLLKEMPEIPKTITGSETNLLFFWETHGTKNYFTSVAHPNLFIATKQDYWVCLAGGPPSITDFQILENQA

B1: ABT1-95-35 (other)
VL: DIQMTQSPSSLSASVGDRVTITCRASGPIVRNLRWYQQKPGKAPKLLIYSSSYLEPGVPSRFSGSGSGTDFTLTISSLQPEDFATYHCQQGYRWPVTFGQGTKVEIKR
notes: VK dAb
B2: ABT1-95-91 (other)
VL: B1 VL with G27Q, Y53N
notes: VK dAb
B3: ABT1-95-146 (other)
VL: B1 VL with G27Q, P28N
notes: VK dAb
B4: ABT1-95-142 (other)
VL: B1 VL with G27Q, V30T
notes: VK dAb
B5: ABT1-95-150 (other)
VL: B1 VL with G27Q, P28H
notes: VK dAb
B6: ABT1-95-76 (other)
VL: B1 VL with G27Q, S51G
notes: VK dAb
B7: ABT1-95-83 (other)
VL: B1 VL with G27Q, S60P
notes: VK dAb
B8: ABT1-95-112 (other)
VL: B1 VL with G27Q, P56N
notes: VK dAb
B9: ABT1-95-50 (other)
VL: B1 VL with G27Q, V30P
notes: VK dAb
B10: ABT1-95-110 (other)
VL: B1 VL with G27Q, P56A
notes: VK dAb
B11: ABT1-95-75 (other)
VL: B1 VL with G27Q, S51A
notes: VK dAb
B12: ABT1-95-65 (other)
VL: B1 VL with G27Q, S50G
notes: VK dAb
B13: ABT1-95-106 (other)
VL: B1 VL with G27Q, P56R, T97A
notes: VK dAb
B14: ABT1-95-123 (other)
VL: B1 VL with G27Q, R93A
notes: VK dAb
B15: ABT1-95-144 (other)
VL: B1 VL with G27Q, E55S
notes: VK dAb
B16: ABT1-95-94 (other)
VL: B1 VL with G27Q, Y53S
notes: VK dAb
B17: ABT1-95-152 (other)
VL: B1 VL with S26G, G27Q, V30P
notes: VK dAb
B18: ABT1-95-90 (other)
VL: B1 VL with G27Q, Y53Q
notes: VK dAb
B19: ABT1-95-87 (other)
VL: B1 VL with G27Q, Y53R
notes: VK dAb
B20: ABT1-95-77 (other)
VL: B1 VL with G27Q, K45E, S51G
notes: VK dAb
B21: ABT1-95-95 (other)
VL: B1 VL with T5I, G27Q, Y53Q
notes: VK dAb
B22: ABT1-95-130 (other)
VL: B1 VL with G27Q, H87Y, R93L
notes: VK dAb
B23: ABT1-95-124 (other)
VL: B1 VL with G27Q, R93M
notes: VK dAb
B24: ABT1-95-143 (other)
VL: B1 VL with G27Q, Y49T
notes: VK dAb
B25: ABT1-95-93 (other)
VL: B1 VL with G27Q, Y53I, S65G
notes: VK dAb
B26: ABT1-95-59 (other)
VL: B1 VL with G27Q, R31K
notes: VK dAb
B27: ABT1-95-151 (other)
VL: B1 VL with S26G, G27Q, G99D
notes: VK dAb
B28: ABT1-95-54 (other)
VL: B1 VL with G27Q, R31T
notes: VK dAb
B29: ABT1-95-57 (other)
VL: B1 VL with G27Q, R31E
notes: VK dAb
B30: ABT1-95-101 (other)
VL: B1 VL with G27Q, I48V, Y53L
notes: VK dAb
B31: ABT1-95-114 (other)
VL: B1 VL with G27Q, P56V
notes: VK dAb
B32: ABT1-95-73 (other)
VL: B1 VL with G27Q, S50Q
notes: VK dAb
B33: ABT1-95-145 (other)
VL: B1 VL with R18H, G27Q, E55V
notes: VK dAb
B34: ABT1-95-58 (other)
VL: B1 VL with S26R, G27Q, R31S
notes: VK dAb
B35: ABT1-95-55 (other)
VL: B1 VL with G27Q, R31H
notes: VK dAb
B36: ABT1-95-42 (other)
VL: B1 VL with G27F
notes: VK dAb
B37: ABT1-95-129 (other)
VL: B1 VL with G27Q, Q79H, F83L
notes: VK dAb
B38: ABT1-95-74 (other)
VL: B1 VL with G27Q, K39R, S51G
notes: VK dAb
B39: ABT1-95-141 (other)
VL: B1 VL with G27Q, V30L
notes: VK dAb
B40: ABT1-95-108 (other)
VL: B1 VL with G27Q, P56E
notes: VK dAb
B41: ABT1-95-128 (other)
VL: B1 VL with G27Q, V96G
notes: VK dAb
B42: ABT1-95-147 (other)
VL: B1 VL with R24W, G27Q, P28G
notes: VK dAb
B43: ABT1-95-111 (other)
VL: B1 VL with G27Q, P56D
notes: VK dAb
B44: ABT1-95-98 (other)
VL: B1 VL with G27Q, Y53A
notes: VK dAb
B45: ABT1-95-60 (other)
VL: B1 VL with S9A, G27Q, R31A
notes: VK dAb
B46: ABT1-95-127 (other)
VL: B1 VL with G27Q, S76G, V96I
notes: VK dAb
B47: ABT1-95-71 (other)
VL: B1 VL with G27Q, S50N
notes: VK dAb
B48: ABT1-95-120 (other)
VL: B1 VL with G27Q, V30A, G91V
notes: VK dAb
B49: ABT1-95-89 (other)
VL: B1 VL with G27Q, Y53L
notes: VK dAb
B50: ABT1-95-126 (other)
VL: B1 VL with G27Q, V96S
notes: VK dAb
B51: ABT1-95-69 (other)
VL: B1 VL with G27Q, S50K
notes: VK dAb
B52: ABT1-95-78 (other)
VL: B1 VL with G27Q, S51E
notes: VK dAb
B53: ABT1-95-39 (other)
VL: B1 VL with G27Q, S77G
notes: VK dAb
B54: ABT1-95-72 (other)
VL: B1 VL with G27Q, S50H
notes: VK dAb
B55: ABT1-95-140 (other)
VL: B1 VL with G27Q, P28G
notes: VK dAb
B56: ABT1-95-96 (other)
VL: B1 VL with T22A, G27Q, Y53R
notes: VK dAb
B57: ABT1-95-70 (other)
VL: B1 VL with G27Q, I48V, S50G
notes: VK dAb
B58: ABT1-95-46 (other)
VL: B1 VL with G27S, R31Q
notes: VK dAb
B59: ABT1-95-125 (other)
VL: B1 VL with G27Q, V96L
notes: VK dAb
B60: ABT1-95-52 (other)
VL: B1 VL with G27Q, R31S
notes: VK dAb
B61: ABT1-95-53 (other)
VL: B1 VL with G27Q, R31A
notes: VK dAb
B62: ABT1-95-63 (other)
VL: B1 VL with G27Q, P40L, Y49F
notes: VK dAb

biological target: T1, human IL-1α; assay: Table 62 IC50; RBA presumed

IC50 | Binder
0.2 nM | B1
0.3 nM | B2
0.8 nM | B3
0.5 nM | B4
0.2 nM | B5
0.3 nM | B6
0.2 nM | B7
0.1 nM | B8
0.5 nM | B9
0.1 nM | B10
0.3 nM | B11
0.2 nM | B12
0.1 nM | B13
0.1 nM | B14
0.5 nM | B15
0.1 nM | B16
0.8 nM | B17
0.5 nM | B18
0.2 nM | B19
0.3 nM | B20
0.3 nM | B21

IC50 | Binder
> 1 nM | B22
0.2 nM | B23
10 nM | B24
0.1 nM | B25
0.3 nM | B26
0.2 nM | B27
1 nM | B28
0.6 nM | B29
0.5 nM | B30
0.2 nM | B31
3 nM | B32
0.8 nM | B33
0.6 nM | B34
0.6 nM | B35
0.1 nM | B36
> 10 nM | B37
0.3 nM | B38
1 nM | B39
0.5 nM | B40
> 1 nM | B41
0.2 nM | B42

IC50 | Binder
< 0.1 nM | B43
0.8 nM | B44
0.7 nM | B45
0.1 nM | B46
1 nM | B47
0.1 nM | B48
0.3 nM | B49
0.8 nM | B50
1 nM | B51
0.3 nM | B52
0.2 nM | B53
1 nM | B54
0.2 nM | B55
0.1 nM | B56
0.1 nM | B57
0.8 nM | B58
0.2 nM | B59
1 nM | B60
0.3 nM | B61
0.6 nM | B62
